The target of one series is PlexinC1 (Homo sapiens) (UniProt O60486). Briefly: Scatchard analysis. To be noted: cited from earlier work.
Series [1] addresses PlexinC1-SemaPSI (Sema domain plus the first PSI domain) (human) (UniProt O60486). Briefly: ITC.
Series [2] addresses Sema7A, extracellular segment, glycan-trimmed (for crystallization) (human) (UniProt O75326). Briefly: SEC. For orientation: Size exclusion chromatography separates by hydrodynamic size, large species first.
For series [3] the target is unchanged. Briefly: crystal structure.
The series “SEC + cross-linking” concerns the molecule itself. Briefly: SEC + cross-linking.

Consider Sema7A (from UniProt O75326), for which the Kd (as a rule, the free concentration of one partner at which half of the binding sites on the other are occupied at equilibrium, for simple one-to-one binding) in the series with PlexinC1 (Homo sapiens) was 2.1 nM.
“Sema7A, entire extracellular segment excluding the GPI anchor (from UniProt O75326 45-648) (ligand)”: in series [1], the Kd amounted to 290 nM and the dH was -2 kcal/mol.
In the case of “Sema7A, extracellular segment, glycan-trimmed (for crystallization) (from UniProt O75326 45-648) (ligand)”, the stoichiometry N in series [2] and in series [3] was 2 in each case.

B1: PlexinC1-ECD (entire extracellular segment) (receptor, human, UniProt O60486 35-944, looked up)
chain: ADEPVWRSEQAIGAIAASQEDGVFVASGSCLDQLDYSLEHSLSRLYRDQAGNCTEPVSLAPPARPRPGSSFSKLLLPYREGAAGLGGLLLTGWTFDRGACEVRPLGNLSRNSLRNGTEVVSCHPQGSTAGVVYRAGRNNRWYLAVAATYVLPEPETASRCNPAASDHDTAIALKDTEGRSLATQELGRLKLCEGAGSLHFVDAFLWNGSIYFPYYPYNYTSGAATGWPSMARIAQSTEVLFQGQASLDCGHGHPDGRRLLLSSSLVEALDVWAGVFSAAAGEGQERRSPTTTALCLFRMSEIQARAKRVSWDFKTAESHCKEGDQPERVQPIASSTLIHSDLTSVYGTVVMNRTVLFLGTGDGQLLKVILGENLTSNCPEVIYEIKEETPVFYKLVPDPVKNIYIYLTAGKEVRRIRVANCNKHKSCSECLTATDPHCGWCHSLQRCTFQGDCVHSENLENWLDISSGAKKCPKIQIIRSSKEKTTVTMVGSFSPRHSKCMVKNVDSSRELCQNKSQPNRTCTCSIPTRATYKDVSVVNVMFSFGSWNLSDRFNFTNCSSLKECPACVETGCAWCKSARRCIHPFTACDPSDYERNQEQCPVAVEKTSGGGRPKENKGNRTNQALQVFYIKSIEPQKVSTLGKSNVIVTGANFTRASNITMILKGTSTCDKDVIQVSHVLNDTHMKFSLPSSRKEMKDVCIQFDGGNCSSVGSLSYIALPHCSLIFPATTWISGGQNITMMGRNFDVIDNLIISHELKGNINVSEYCVATYCGFLAPSLKSSKVRTNVTVKLRVQDTYLDCGTLQYREDPRFTGYRVESEVDTELEVKIQKENDNFNISKKDIEITLFHGENGQLNCSFENITRNQDLTTILCKIKGIKTASTIANSSKKVRVKLGNLELYVEQESVPST
In the case of B1, the binding result in the series “SEC + cross-linking” is listed as “binds”.

The values above are taken from publication PMC2936782 (Cell, 2010).
